Source: PMC4547048

Substrate: CC(C)C[C@H](N)C(=O)Nc1ccc([N+](=O)[O-])cc1
Assay: purified protein
Type: biochemical, Anopheles gambiae
Details: 1 mM MnCl2, pH 7.5, 10 mM Tris-HCl, 150 mM NaCl, 25 °C

B1: AnAPN1 (near full-length recombinant, rFL-APN1) (Anopheles gambiae) (protein)
chain: PPYKSSGIYEEEPQLPGASDLSGGVASDEIGVAPAQAVDERYRLPTTSIPIHYDLHLRTEIHRNERTFTGTVGIQLQVVQATDKLVMHNRGLVMSSAKVSSLPNGVTGAPTLIGDVQYSTDTTFEHITFTSPTILQPGTYLLEVAFQGRLATNDDGFYVSSYVADNGERRYLATTQFESTSARMAFPCYDEPGLKATFTVSITHSLSYKAISNMPQKTTTDIETDMRTTFFEKTPAMSTYLLAFVVSDFQLRLSGAQRVYVRPNAFNEATFALEAGVKILKVLDDHLGIPYDTYMPKLDQIAIPDFAAGAMENWGLVTYREQALLFNPAVSTYRGKTNVATTIAHEYAHQWFGNLVSPEWWEYIWLNEGFATLYEFYALDMAYPGQEYWELFNQQVIQYAMGQDGQASTRPMNWNAATPGEISALFDRVAYDKSGSVLNMMRHVLGDDNWKAGLKAYLTDRALQGAVDEQLYAGLQSAIEGKGVLPNGVTVAQIMRTWTNEAGYPVLNVRRSYDTGDVIISQERFYNDRKVPNTNIWMIPYNYVHQAKADFNEFDDFQWLATKAARIETTVPANEWIVFNKQQVGYYRVNYDEHNWELITNALHENWASIHRLNRAQLIDDAYWLARSGRLDLRVALRFMTYLRNEREYAPWTAANVALTYFNNRLRGTAEYHNFLIFVDALIEDIYSLLTIDAVSPDDTLLHKYLVQTISTWACSMGYTDCLMKTAALLKAEASGTGPAVHPDIASVTYCYGMRSALESEFQYLYRKMMNSKNLAERTMLIDSLGCSNNKEFLKAFLTTALGSGTGVEINYRADERRRVVQAIYSGGRTGVDALIEFLMDPALVNEFVSTLSTSTLNSALSAIASRTNNVEEMNKLNALITALGSRVNSQTAANLRTTAQANLDWVNGFEGLMLSNFLAE
  Km: 1840 µM
